Test results: patent US20220332804A1 (CSL INNOVATION, published 2022)

Assays:
Assay in all cases: SPR, KD relative to WT C2;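 note: biacore SPR at 37 °C, anti-C2 mAbs captured on anti-human IgG chips with alanine or serine point mutants of C2 as analyte, KD from 1:1 fit compared with wild-type C2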
[1] = target: T1, human C2 V448A (human, UniProt P06681 21-752)
T1 sequence: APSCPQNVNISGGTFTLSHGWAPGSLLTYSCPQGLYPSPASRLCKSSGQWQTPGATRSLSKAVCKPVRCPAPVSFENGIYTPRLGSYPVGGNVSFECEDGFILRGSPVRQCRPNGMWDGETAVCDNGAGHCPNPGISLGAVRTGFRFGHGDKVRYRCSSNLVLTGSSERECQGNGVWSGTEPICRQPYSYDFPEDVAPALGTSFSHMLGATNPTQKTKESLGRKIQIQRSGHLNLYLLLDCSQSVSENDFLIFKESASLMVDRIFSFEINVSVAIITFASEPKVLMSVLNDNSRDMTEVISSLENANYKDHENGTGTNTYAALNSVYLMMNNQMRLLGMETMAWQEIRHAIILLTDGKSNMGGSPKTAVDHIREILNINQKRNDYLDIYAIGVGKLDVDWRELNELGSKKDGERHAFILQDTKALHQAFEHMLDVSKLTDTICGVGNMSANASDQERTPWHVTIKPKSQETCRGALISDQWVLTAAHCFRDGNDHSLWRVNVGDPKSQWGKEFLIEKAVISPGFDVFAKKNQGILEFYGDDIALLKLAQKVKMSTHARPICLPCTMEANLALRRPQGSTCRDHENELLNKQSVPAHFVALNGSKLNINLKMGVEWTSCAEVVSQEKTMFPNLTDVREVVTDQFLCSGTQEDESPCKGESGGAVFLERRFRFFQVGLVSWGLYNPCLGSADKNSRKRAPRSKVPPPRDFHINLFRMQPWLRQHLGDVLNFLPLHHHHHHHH

[2] = target: T2, human C2 D431A (human, UniProt P06681 21-752)
T2 sequence: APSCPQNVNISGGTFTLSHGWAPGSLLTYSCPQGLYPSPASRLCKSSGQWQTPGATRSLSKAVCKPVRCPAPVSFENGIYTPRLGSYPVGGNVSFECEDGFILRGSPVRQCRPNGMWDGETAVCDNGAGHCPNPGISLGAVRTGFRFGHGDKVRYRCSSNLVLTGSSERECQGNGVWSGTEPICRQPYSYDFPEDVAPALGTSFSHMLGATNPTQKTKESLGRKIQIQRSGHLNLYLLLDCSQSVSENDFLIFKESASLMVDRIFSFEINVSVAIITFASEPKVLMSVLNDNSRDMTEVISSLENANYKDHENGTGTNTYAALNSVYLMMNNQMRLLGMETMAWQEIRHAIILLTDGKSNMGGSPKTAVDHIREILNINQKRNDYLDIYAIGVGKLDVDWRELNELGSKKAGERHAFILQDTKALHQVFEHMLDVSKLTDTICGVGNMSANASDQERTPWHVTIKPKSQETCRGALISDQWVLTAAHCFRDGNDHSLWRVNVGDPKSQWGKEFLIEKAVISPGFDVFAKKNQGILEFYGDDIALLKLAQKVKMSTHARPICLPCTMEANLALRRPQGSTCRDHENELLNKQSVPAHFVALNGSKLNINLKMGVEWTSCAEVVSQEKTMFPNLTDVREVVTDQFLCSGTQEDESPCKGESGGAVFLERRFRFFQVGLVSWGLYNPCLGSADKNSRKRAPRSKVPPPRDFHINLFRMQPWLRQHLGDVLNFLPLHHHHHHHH

[3] = target: T3, human C2 S469A (human, UniProt P06681 21-752)
T3 sequence: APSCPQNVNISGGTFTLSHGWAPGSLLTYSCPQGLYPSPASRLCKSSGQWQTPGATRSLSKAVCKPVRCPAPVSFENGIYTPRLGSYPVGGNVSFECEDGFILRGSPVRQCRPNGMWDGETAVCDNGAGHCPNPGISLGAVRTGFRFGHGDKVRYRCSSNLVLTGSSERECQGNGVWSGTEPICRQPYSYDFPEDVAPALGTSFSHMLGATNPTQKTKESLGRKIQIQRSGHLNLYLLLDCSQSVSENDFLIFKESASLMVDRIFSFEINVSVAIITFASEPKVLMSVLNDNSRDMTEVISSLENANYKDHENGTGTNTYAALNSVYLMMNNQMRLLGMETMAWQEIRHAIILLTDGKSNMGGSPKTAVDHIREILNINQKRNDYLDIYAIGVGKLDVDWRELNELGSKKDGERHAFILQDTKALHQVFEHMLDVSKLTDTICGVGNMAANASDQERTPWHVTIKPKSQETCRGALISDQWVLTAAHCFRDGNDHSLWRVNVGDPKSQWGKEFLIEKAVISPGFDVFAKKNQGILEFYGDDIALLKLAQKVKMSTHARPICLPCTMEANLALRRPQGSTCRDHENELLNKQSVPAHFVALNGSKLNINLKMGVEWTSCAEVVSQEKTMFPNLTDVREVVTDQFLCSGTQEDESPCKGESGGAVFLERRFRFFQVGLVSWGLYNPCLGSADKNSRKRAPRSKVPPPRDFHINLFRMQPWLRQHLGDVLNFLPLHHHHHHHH

[4] = target: T4, human C2 T442A (human, UniProt P06681 21-752)
T4 sequence: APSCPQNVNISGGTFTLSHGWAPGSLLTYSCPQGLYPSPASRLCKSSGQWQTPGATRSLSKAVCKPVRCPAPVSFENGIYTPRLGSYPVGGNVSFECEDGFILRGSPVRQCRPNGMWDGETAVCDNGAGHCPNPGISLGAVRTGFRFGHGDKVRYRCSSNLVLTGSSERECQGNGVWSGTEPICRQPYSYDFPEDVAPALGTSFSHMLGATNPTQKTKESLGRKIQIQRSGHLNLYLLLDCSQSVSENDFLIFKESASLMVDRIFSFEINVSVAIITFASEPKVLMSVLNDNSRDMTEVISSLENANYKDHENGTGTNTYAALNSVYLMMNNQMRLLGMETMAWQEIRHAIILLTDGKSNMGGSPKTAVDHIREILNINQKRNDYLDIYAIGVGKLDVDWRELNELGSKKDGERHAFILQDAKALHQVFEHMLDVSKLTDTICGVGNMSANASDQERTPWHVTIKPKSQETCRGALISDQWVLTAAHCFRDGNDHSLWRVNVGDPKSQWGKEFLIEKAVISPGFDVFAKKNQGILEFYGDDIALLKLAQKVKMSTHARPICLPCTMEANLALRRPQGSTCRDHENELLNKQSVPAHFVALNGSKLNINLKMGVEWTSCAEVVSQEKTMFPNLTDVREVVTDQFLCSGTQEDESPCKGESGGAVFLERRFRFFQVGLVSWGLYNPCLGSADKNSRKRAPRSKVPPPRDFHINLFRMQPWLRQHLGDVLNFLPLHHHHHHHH

B1: RF16-242 (antibody, human IgG4 S228P, lambda, V domains shown)
VH: EVQLLQSGAEVKKPGESLKISCKGSGYSFTSYWIGWVRQMPGKGLEWMGIIYPGDSDTRYSPSFQGQVTISADKSISTAYLQWSSLKASDTAMYYCARRGHYGDYFDYWGQGTLVTVSS
VL: SYELTQPPSVSVSPGQTARITCSGDALPKKYAYWYHQKSGQAPVLVIYEDRRRPSEIPERFSGSSSGTMATLTITGAQVEDEGVYFCYSRDRAGNQRVFGGGTQLTVLG
notes: pH-dependent anti-C2 antibody from a phage display library
B1 was tested, and the Fold diff [1] was 1 fold, the Fold diff [2] was 3 fold and the Fold diff [3] was 3 fold. It also gave a Fold diff [4] of 3 fold.
